# Literature values in US11850285B2, “Insulin-responsive glucagon delivery patch” (North Carolina State University, priority 2017, dated 2023).
# Conditions: in vivo
substance,measurement,value
Insulin glargine,duration,up to 24 hour
